# Experimental data reported in US20260049151A1 (SHENGHE CHINA BIOPHARMACEUTICAL, published 2026).
# Like-named read-outs stand apart in the source and are kept apart here.
# T1: Human-TNFR2-His (human, UniProt P20333 23-257)
# T1 construct: Bought protein; also called human TNFR2 protein; TNFR2 protein; not shown: His tag
# T1 sequence (looked up): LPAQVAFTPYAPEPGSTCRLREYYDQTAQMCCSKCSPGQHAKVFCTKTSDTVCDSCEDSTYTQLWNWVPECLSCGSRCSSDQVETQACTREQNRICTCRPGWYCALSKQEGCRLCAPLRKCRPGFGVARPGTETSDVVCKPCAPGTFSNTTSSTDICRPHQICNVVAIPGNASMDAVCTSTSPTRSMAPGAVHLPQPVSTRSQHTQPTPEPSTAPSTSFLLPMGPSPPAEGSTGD
# Tests used:
# [1] = biological target: T2, Human 4-1BB His (human, UniProt Q07011 24-186); assay: ELISA: Human 4-1BB His coated (0.2 ug/mL), antibody titrated, goat anti-human IgG Fc detection (Example 3)
# T2 construct: Bought protein; lots 198-2146F1-W6 and 2407c-214FF1-YC; also called human 4-1BB protein; 4-1BB protein; not shown: His tag
# [2] = biological target: T2, Human 4-1BB His; assay: BLI, antibody on AHC sensor, 100 nM 4-1BB His in solution
# Text: The variable region of the antibody sequence of the positive control consists of SEQ ID NO: 15 and SEQ ID NO: 19, with the addition of the constant region of human IgG1 (SEQ ID NO: 46 and SEQ ID NO: 47). The AHC sensor was soaked in 0.02% PBST (0.02% Tween 20, pH 7.4, 1× PBS) as a buffer for 600 s to remove the sucrose covering the sensor surface. The AHC sensor was equilibrated with 0.02% PBST (0.02% Tween 20, pH 7.4, 1× PBS) as a buffer for 60 s, the antibody in the sample plate was solidified for 300 s, and the secondary equilibration buffer was used for 180 s. 100 nM human 4-1BB His (manufacturer: Acro, CAT: 41B-H5258, LOT: 198-2146F1-W6) protein was bound to the antibody for 300 s and then dissociated for 600 s. After dissociation, 10 mM glycine (pH 2.0) was used as a regeneration buffer for 30 s. The sensor was regenerated with 10 mM glycine (pH 2.0).
# [3] = biological target: T1, Human-TNFR2-His; assay: ELISA: Human-TNFR2-His coated (0.1 ug/mL), antibody titrated, goat anti-human IgG Fc detection (Example 2)
# [4] = biological target: T2, Human 4-1BB His; assay: ELISA: Human 4-1BB His coated (0.2 ug/mL), antibody titrated, goat anti-human IgG Fc detection (Example 3); remark: listed apart in the source
# Experimental: (§1) Human 4-1BB His (manufacturer: Acro, CAT: 41B-H5258, LOT: 198-2146F1-W6) was diluted to 0.2 μg/mL with a coating solution (1×PBS, pH7.4), and coated in 96-well ELISA plate at 100 μL/well overnight at 4° C. The coating solution was poured off. Each well was washed with 1×PBST at 300 μL, washed 4 times with a plate washer, and patted dry on a flat paper. It was blocked with 3% skim milk powder at 300 μL/well, and incubated at 37° C. for 1 h. The blocking solution was poured off, washed 4 times with a plate washer, and patted dry on a flat paper. Negative control and positive control were set up. […] The variable region of the antibody sequence of the positive control consists of SEQ ID NO: 15 and SEQ ID NO: 19, with the addition of the constant region of human IgG1 (SEQ ID NO: 46 and SEQ ID NO: 47). The positive control and antibody were diluted to 10 μg/mL with 3% skim milk powder as the starting concentration, and then diluted by 3-fold gradient (11 gradients in total), and a blank well was set up and only the diluent was added. It was incubated at 37° C. for 1 h at 100 μL/well. The liquid in the well was discarded, washed 4 times with a plate washer, and patted dry on a flat paper. Goat anti-human IgG Fc was diluted with 3% skim milk powder at 1:20000, and incubated at 37° C. for 1 h at 100 μL/well. It was washed 6 times with a plate washer, and patted dry on a flat paper. TMB color developing solution was added at 100 μL/well, and wrapped with aluminum foil. Color development was performed at 37° C. in the dark for 8 min. Termination solution 1M HCl was added to terminate the color development reaction at 100 μL/well. Readings were taken at 450 nm on an ELISA reader.
# [5] = biological target: T1, Human-TNFR2-His; assay: ELISA: Human-TNFR2-His coated (0.1 ug/mL), antibody titrated, goat anti-human IgG Fc detection (Example 2); remark: listed apart in the source
# Experimental: (§2) Human-TNFR2-His (manufacturer: SINO, CAT: 10417-H08H, LOT: LC15NO0412) was diluted to 0.1 μg/mL with a coating solution (1×PBS, pH7.4), and coated in 96-well ELISA plate at 100 µL/well overnight at 4° C. The coating solution was poured off. Each well was washed with 1×PBST at 300 μL, washed 4 times with a plate washer, and patted dry on a flat paper. It was blocked with 3% skim milk powder at 300 μL/well, and incubated at 37° C. for 1 h. The blocking solution was poured off, washed 4 times with a plate washer, and patted dry on a flat paper. Negative control and positive control were set up. […] The positive control and antibody were diluted to 10 μg/mL with 3% skim milk powder as the starting concentration, and then diluted by 3-fold gradient (11 gradients in total), and a blank well was set up and only the diluent was added. It was incubated at 37° C. for 1 h at 100 μL/well. The liquid in the well was discarded, washed 4 times with a plate washer, and patted dry on a flat paper. Goat anti-human IgG Fc was diluted with 3% skim milk powder at 1:10000, and incubated at 37° C. for 1 h at 100 μL/well. It was washed 6 times with a plate washer, and patted dry on a flat paper. TMB color developing solution was added at 100 μL/well, and wrapped with aluminum foil. Color development was performed at 37° C. in the dark for 8 min. Termination solution 1M HCl was added to terminate the color development reaction at 100 μL/well. Readings were taken at 450 nm on an ELISA reader.
# [6] = biological target: T1, Human-TNFR2-His; assay: as above; remark: listed apart in the source
# Experimental: as §2
# [7] = biological target: T2, Human 4-1BB His; assay: ELISA: Human 4-1BB His coated (0.2 ug/mL), antibody titrated, goat anti-human IgG Fc detection (Example 3); remark: listed apart in the source
# Experimental: as §1
# T2 sequence (Q07011 24-186 limits assumed): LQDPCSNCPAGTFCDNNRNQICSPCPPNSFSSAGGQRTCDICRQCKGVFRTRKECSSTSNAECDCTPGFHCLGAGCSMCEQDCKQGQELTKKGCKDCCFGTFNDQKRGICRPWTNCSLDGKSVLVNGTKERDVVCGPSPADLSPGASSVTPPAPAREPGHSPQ
Binder,EC50 (read off the curve) [1],Kd [2],koff [2],kon [2],EC50 (read off the curve) [3],EC50 (read off the curve) [4],EC50 (read off the curve) [5],EC50 (read off the curve) [6],EC50 (read off the curve) [7]
"Antibody E1 (bispecific antibody, human IgG1, kappa, IgG1 subtype; full-length TNFR2 antibody with 4-1BB scFv at the C-terminus of the heavy chains) light: DIVMTQSPATLSVSPGERATLSCKASQNVGSNVDWYQQKPGQSPRVLIYKASIRYTGIPARFSGSGSGTEFTLTISILQSEDFAVYFCMQSKSYPITFGQGTKLEIKRTVAAPSVFIFPPSDEQLKSGTASVVCLLNNFYPREAKVQWKVDNALQSGNSQESVTEQDSKDSTYSLSSTLTLSKADYEKHKVYACEVTHQGLSSPVTKSFNRGEC heavy: not shown",~0.2 nM,18.1 nM,0.00546 s⁻¹,302000 M⁻¹ s⁻¹,~0.09 nM,–,–,–,–
"Antibody H (bispecific antibody, human IgG1, kappa, IgG1 subtype; full-length TNFR2 antibody with 4-1BB scFv at the N-terminus of the light chains) light: QVQLQESGPGLVKPSETLSLTCTVSGSSLTSYGVHWVRQPPGKCLEGLGVIWPGGSTNYNSALMSRVTISKDNSKSQVSLKMSSLTAADTAVYYCARVTGTWYFDVWGQGTTVTVSSGGGGSGGGGSGGGGSDIQMTQSPSSLSASLGDRVTISCSASQGISNYLNWYQQKPDGTVKLLIYYTSTLHSGVPSRFSGSGSGTDYTLTISSLQPEDIATYYCQQYSKLPWTFGCGTKLEIKGGGGSGGGGSGGGGSDIVMTQSPATLSVSPGERATLSCKASQNVGSNVDWYQQKPGQSPRVLIYKASIRYTGIPARFSGSGSGTEFTLTISILQSEDFAVYFCMQSKSYPITFGQGTKLEIKRTVAAPSVFIFPPSDEQLKSGTASVVCLLNNFYPREAKVQWKVDNALQSGNSQESVTEQDSKDSTYSLSSTLTLSKADYEKHKVYACEVTHQGLSSPVTKSFNRGEC heavy: not shown",–,6.42 nM,0.00435 s⁻¹,677000 M⁻¹ s⁻¹,–,~0.06 nM,~0.08 nM,–,–
"Antibody J1 (bispecific antibody, human IgG1, kappa, IgG1 subtype; full-length 4-1BB antibody with TNFR2 VHH at the C-terminus of the heavy chains) light: DIQMTQSPSSLSASLGDRVTISCSASQGISNYLNWYQQKPDGTVKLLIYYTSTLHSGVPSRFSGSGSGTDYTLTISSLQPEDIATYYCQQYSKLPWTFGGGTKLEIKRTVAAPSVFIFPPSDEQLKSGTASVVCLLNNFYPREAKVQWKVDNALQSGNSQESVTEQDSKDSTYSLSSTLTLSKADYEKHKVYACEVTHQGLSSPVTKSFNRGEC heavy: not shown",–,12.2 nM,0.00616 s⁻¹,503000 M⁻¹ s⁻¹,~0.2 nM,~0.09 nM,–,–,–
"Antibody M1 (bispecific antibody, human IgG1, kappa, IgG1 subtype; full-length 4-1BB antibody with TNFR2 VHH at the N-terminus of the heavy chains) light: DIQMTQSPSSLSASLGDRVTISCSASQGISNYLNWYQQKPDGTVKLLIYYTSTLHSGVPSRFSGSGSGTDYTLTISSLQPEDIATYYCQQYSKLPWTFGGGTKLEIKRTVAAPSVFIFPPSDEQLKSGTASVVCLLNNFYPREAKVQWKVDNALQSGNSQESVTEQDSKDSTYSLSSTLTLSKADYEKHKVYACEVTHQGLSSPVTKSFNRGEC heavy: not shown",–,17.5 nM,0.00647 s⁻¹,369000 M⁻¹ s⁻¹,–,–,–,~0.04 nM,~0.09 nM
